Measurements: publication PMC13507078, “The BRCT domain enhances DNA binding and catalytic efficiency of fungal PARPs”

Columns and labels:
Af-PARP1 K52A = Af-PARP1 K52A (Aspergillus fumigatus, UniProt B0Y3N8 1-23+35-688, K63A;internal_change); test: EMSA; EMSA: 50 mM HEPES pH 8, 100 mM NaCl, 10% glycerol, 10 mM DTT, 45 min at 4 °C, 7% native PAGE 0.5x TBE; plasmid EMSA: 20 mM Tris-HCl pH 8, 30 mM NaCl, 1 mM EDTA, 1 mM DTT; CD: 20 mM HEPES pH 8, 100 mM NaCl, 0.5 mM TCEP, 2% glycerol; settings: protein: recombinant; tags: His; dumbbell of two hairpins, nick
Af-PARP1 E53A = Af-PARP1 E53A (Aspergillus fumigatus, UniProt B0Y3N8 1-23+35-688, E64A;internal_change); test: as above; settings: protein: recombinant; tags: His; dumbbell of two hairpins, nick
Af-PARP1 K60A = Af-PARP1 K60A (Aspergillus fumigatus, UniProt B0Y3N8 1-23+35-688, K71A;internal_change); test: as above; settings: protein: recombinant; tags: His; dumbbell of two hairpins, nick
Af-PARP1 K56A = Af-PARP1 K56A (Aspergillus fumigatus, UniProt B0Y3N8 1-23+35-688, K67A;internal_change); test: as above; settings: protein: recombinant; tags: His; dumbbell of two hairpins, nick
Af-PARP1 Q22A = Af-PARP1 Q22A (Aspergillus fumigatus, UniProt B0Y3N8 1-23+35-688, Q22A;internal_change); test: as above; settings: protein: recombinant; tags: His; dumbbell of two hairpins, nick
Af-PARP1 S14A = Af-PARP1 S14A (Aspergillus fumigatus, UniProt B0Y3N8 1-23+35-688, S14A;internal_change); test: as above; settings: protein: recombinant; tags: His; dumbbell of two hairpins, nick
Af-PARP1 K52/60A = Af-PARP1 K52/60A (Aspergillus fumigatus, UniProt B0Y3N8 1-23+35-688, K63A;K71A;internal_change); test: as above; settings: protein: recombinant; tags: His; dumbbell of two hairpins, nick
Af-PARP1 S241Q [1] = biological target: T1, Af-PARP1 S241Q (Aspergillus fumigatus, UniProt B0Y3N8 1-23+35-688, S252Q;internal_change); test: EMSA; mutation did not restore binding; EMSA: 50 mM HEPES pH 8, 100 mM NaCl, 10% glycerol, 10 mM DTT, 45 min at 4 °C, 7% native PAGE 0.5x TBE; plasmid EMSA: 20 mM Tris-HCl pH 8, 30 mM NaCl, 1 mM EDTA, 1 mM DTT; CD: 20 mM HEPES pH 8, 100 mM NaCl, 0.5 mM TCEP, 2% glycerol; settings: protein: recombinant; tags: His; hairpin, blunt end
Af-PARP1 S241Q [2] = biological target: T1, Af-PARP1 S241Q; test: EMSA; EMSA: 50 mM HEPES pH 8, 100 mM NaCl, 10% glycerol, 10 mM DTT, 45 min at 4 °C, 7% native PAGE 0.5x TBE; plasmid EMSA: 20 mM Tris-HCl pH 8, 30 mM NaCl, 1 mM EDTA, 1 mM DTT; CD: 20 mM HEPES pH 8, 100 mM NaCl, 0.5 mM TCEP, 2% glycerol; settings: protein: recombinant; tags: His; described as blunt duplex; printed strands not exactly complementary

CGGTCGATCGTAAGATCGACCGGCGCTGGAGCTTGCTCCAGCGC (structured_DNA, 5'-phosphate) [DNA-1 (5'P nick)]: binds (Af-PARP1 K52A); binds (Af-PARP1 E53A); binds (Af-PARP1 K60A). CGGTCGATCGTAAGATCGACCGGCGCTGGAGCTTGCTCCAGCGC (structured_DNA, 5'-phosphate) [DNA-1 (5'P nick)]: binds (Af-PARP1 K56A); binds (Af-PARP1 Q22A); binds (Af-PARP1 S14A). CGGTCGATCGTAAGATCGACCGGCGCTGGAGCTTGCTCCAGCGC (structured_DNA, 5'-phosphate) [DNA-1 (5'P nick)]: binds (Af-PARP1 K52/60A).

GGAAGTTCTTTTGAACTTCC (structured_DNA, 5'-phosphate) [DNA-5 (5'P blunt)]: no binding (Af-PARP1 S241Q [1]).

B1: DNA-16/17 (5'P duplex) (dsDNA)
DNA 1: GACGACCCGGACACA
DNA 2: TGTGCTCCGGGTCGTC
modifications: 5'-phosphate on DNA-16
B1: binds (Af-PARP1 S241Q [2]).
